The values that follow are results of earlier work, collected in paper PMC8329052.

The term Kd denotes the free concentration of one partner at which half of the binding sites on the other are occupied at equilibrium, for simple one-to-one binding.

The target in this series is SARS-CoV-2 spike RBD RBD (SARS-CoV-2) (UniProt P0DTC2).

On to “SBP1 (ACE2 alpha1 helix 23-mer peptide) 21-43 (from UniProt Q9BYF1)”, for which the Kd was 47 nM.
